# Experimental data from article PMC2746992.
# B1: MLE-2 from Mycobacterium smegmatis (MLE-MS, anti-MLE) (Mycolicibacterium smegmatis MC2 155) (protein)
# chain: MKIVAIGAIPFSIPYTKPLRFASGEVHAAEHVLVRVHTDDGIVGVAEAPPRPFTYGETQTGIVAVIEQYFAPALIGLTLTEREVAHTRMARTVGNPTAKAAIDMAMWDALGQSLRLSVSEMLGGYTDRMRVSHMLGFDDPVKMVAEAERIRETYGINTFKVKVGRRPVQLDTAVVRALRERFGDAIELYVDGNRGWSAAESLRAMREMADLDLLFAEELCPADDVLSRRRLVGQLDMPFIADESVPTPADVTREVLGGSATAISIKTARTGFTGSTRVHHLAEGLGLDMVMGNQIDGQIGTACTVSFGTAFERTSRHAGELSNFLDMSDDLLTVPLQISDGQLHRRPGPGLGIEIDPDKLAHYRTDN
# B2: MLE-1 from Pseudomonas putida (Pseudomonas putida) (protein)
# chain: TSVLIERIEAIIVHDLPTIRPPHKLAMHTMQTQTLVLIRVRCSDGVEGIGEATTIGGLAYGYESPEGIKANIDAHLAPALVGLPADNINAAMLKLDKLAKGNTFAKSGIESALLDAQGKRLGLPVSELLGGRVRDSLEVAWTLASGDTARDIAEAQHMLEIRRHRVFKLKIGANPLAQDLKHVVAIKRELGDSASVRVDVNQYWDESQAIRACQVLGDNGIDLIEQPISRINRSGQVRLNQRSPAPIMADESIESVEDAFSLAADGAASIFALKIAKNGGPRAVLRTAQIAEAAGIALYGGTMLEGSIGTLASAHAFLTLRQLTWGTELFGPLLLTEEIVNEPPQYRDFQLHIPRTPGLGLTLDEQRLARFARR
# B3: MLE-1 from Pseudomonas fluorescens (MLE-PF, syn-MLE) (Pseudomonas protegens Pf-5) (protein)
# chain: MHASAIESIETIIVDLPTIRPHKLAMHTMQNQTLVLIRLRCADGIEGLGESTTIGGLAYGNESPDSIKTNIDRFVAPLLIGQDASNINAAMLRLEQSIRGNTFAKSGIESALLDAQGKRLGLPVSELLGGRVRDALPVAWTLASGDTAKDIAEAQKMLDLRRHRIFKLKIGAGEVDRDLAHVIAIKKALGDSASVRVDVNQAWDEAVALRACRILGGNGIDLIEQPISRNNRAGMVRLNASSPAPIMADESIECVEDAFNLAREGAASVFALKIAKNGGPRATLRTAAIAEAAGIGLYGGTMLEGGIGTLASAHAFLTLNKLSWDTELFGPLLLTEDILAEPPVYRDFHLHVSKAPGLGLSLDEERLAFFRRD
# Tests used:
# Assay in all cases: spectrophotometric, decrease in A260
# Conditions in all cases: 50 mM Tris-HCl, pH 7.5, 0.1 mM MnCl2, 25 °C
# [1] = substrate: O=C(O)/C=C\C=C/C(=O)O; type: biochemical, Mycolicibacterium smegmatis
# [2] = substrate: O=C(O)/C=C\C=C/C(=O)O; type: biochemical, Pseudomonas putida
# [3] = substrate: O=C(O)/C=C\C=C/C(=O)O; type: biochemical, Pseudomonas protegens
protein,measurement,setting,value
B1,Km,[1],(5.6 ± 1) × 10^-4 M
same,kcat,[1],78 ± 6 s⁻¹
same,kcat/Km,[1],140000 M⁻¹ s⁻¹
B2,Km,[2],(5.4 ± 0.5) × 10^-4 M
same,kcat,[2],11 ± 0.5 s⁻¹
same,kcat/Km,[2],20000 M⁻¹ s⁻¹
B3,Km,[3],(1.6 ± 0.2) × 10^-5 M
same,kcat,[3],110 ± 2 s⁻¹
same,kcat/Km,[3],7e+06 M⁻¹ s⁻¹
